# T1: MERS-CoV receptor binding domain (RBD), biotinylated (MERS-CoV, UniProt K9N5Q8)
# T1 construct: also called MERS-CoV RBD; MERS-CoV spike RBD
# T1 sequence: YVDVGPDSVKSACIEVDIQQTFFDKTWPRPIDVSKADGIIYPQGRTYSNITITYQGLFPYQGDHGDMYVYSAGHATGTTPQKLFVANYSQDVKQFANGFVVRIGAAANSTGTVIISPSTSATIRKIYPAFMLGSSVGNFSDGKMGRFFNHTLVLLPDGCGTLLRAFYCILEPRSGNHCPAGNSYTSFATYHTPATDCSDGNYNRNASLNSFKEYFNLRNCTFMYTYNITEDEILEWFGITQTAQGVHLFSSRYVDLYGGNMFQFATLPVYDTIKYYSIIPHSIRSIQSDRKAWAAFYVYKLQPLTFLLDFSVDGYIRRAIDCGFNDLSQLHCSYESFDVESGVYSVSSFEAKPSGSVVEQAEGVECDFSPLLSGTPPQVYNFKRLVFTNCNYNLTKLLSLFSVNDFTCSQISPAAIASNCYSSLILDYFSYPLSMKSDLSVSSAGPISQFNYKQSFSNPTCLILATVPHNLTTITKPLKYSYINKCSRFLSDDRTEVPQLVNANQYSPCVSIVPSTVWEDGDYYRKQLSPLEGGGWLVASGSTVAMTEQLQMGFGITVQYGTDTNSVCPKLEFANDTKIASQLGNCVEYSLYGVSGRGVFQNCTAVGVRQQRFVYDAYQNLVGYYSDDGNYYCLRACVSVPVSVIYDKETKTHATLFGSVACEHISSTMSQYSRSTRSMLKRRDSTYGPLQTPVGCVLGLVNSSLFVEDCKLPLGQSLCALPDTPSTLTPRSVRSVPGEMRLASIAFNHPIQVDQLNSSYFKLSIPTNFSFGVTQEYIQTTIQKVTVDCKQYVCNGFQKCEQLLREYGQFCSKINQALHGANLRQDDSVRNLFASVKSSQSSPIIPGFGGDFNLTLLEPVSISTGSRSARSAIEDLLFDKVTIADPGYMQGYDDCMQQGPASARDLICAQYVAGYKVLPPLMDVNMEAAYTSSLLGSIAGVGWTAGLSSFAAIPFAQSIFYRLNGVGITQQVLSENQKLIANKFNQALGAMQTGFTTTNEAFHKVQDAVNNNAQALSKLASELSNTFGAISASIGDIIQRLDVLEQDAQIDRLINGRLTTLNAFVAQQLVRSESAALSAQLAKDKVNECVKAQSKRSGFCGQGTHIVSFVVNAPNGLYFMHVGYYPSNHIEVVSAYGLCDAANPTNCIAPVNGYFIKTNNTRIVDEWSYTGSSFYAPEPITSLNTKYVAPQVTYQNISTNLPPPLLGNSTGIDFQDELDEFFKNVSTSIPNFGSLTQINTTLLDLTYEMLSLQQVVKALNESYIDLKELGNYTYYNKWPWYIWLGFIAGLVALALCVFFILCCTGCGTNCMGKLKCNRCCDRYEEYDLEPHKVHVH
# Molecular target: T1, MERS-CoV receptor binding domain (RBD), …
# Experiment: BLI; […] (10 µg/mL) […] (SA) biosensor for 300 s; analyte in kinetic buffer (PBST, 0.1% BSA) […], association 120 s, dissociation 180 s; […]
# Conditions: both partners purified
binder,measurement,value
human DPP4 (receptor) SRKTYTLTDYLKNTYRLKLYSLRWISDHEYLYKQENNILVFNAEYGNSSVFLENSTFDEFGHSINDYSISPDGQFILLEYNYVKQWRHSYTASYDIYDLNKRQLITEERIPNNTQWVTWSPVGHKLAYVWNNDIYVKIEPNLPSYRITWTGKEDIIYNGITDWVYEEEVFSAYSALWWSPNGTFLAYAQFNDTEVPLIEYSFYSDESLQYPKTVRVPYPKAGAVNPTVKFFVVNTDSLSSVTNATSIQITAPASMLIGDHYLCDVTWATQERISLQWLRRIQNYSVMDICDYDESSGRWNCLVARQHIEMSTTGWVGRFRPSEPHFTLDGNSFYKIISNEEGYRHICYFQIDKKDCTFITKGTWEVIGIEALTSDYLYYISNEYKGMPGGRNLYKIQLSDYTKVTCLSCELNPERCQYYSVSFSKEAKYYQLRCSGPGLPLYTLHSSVNDKGLRVLEDNSALDKMLQNVQMPSKKLDFIILNETKFWYQMILPPHFDKSKKYPLLLDVYAGPCSQKADTVFRLNWATYLASTENIIVASFDGRGSGYQGDKIMHAINRRLGTFEVEDQIEAARQFSKMGFVDNKRIAIWGWSYGGYVTSMVLGSGSGVFKCGIAVAPVSRWEYYDSVYTERYMGLPTPEDNLDHYRNSTVMSRAENFKQVEYLLIHGTADDNVHFQQSAQISKALVDVGVDFQAMWYTDEDHGIASSTAHQHIYTHMSHFIKQCFSLP,Kd,55.1 nM

# Reference: paper PMC12173559, “The Functional DPP4 Receptor Is an Indispensable Factor Mediating the Immune Performance of Mucosal Vaccines for Middle East Respiratory Syndrome” (Transboundary and Emerging Diseases, 2025)
